{"source": "patent US8460929B2", "about": "“Methods of tissue generation and tissue engineered compositions” (The Regents of the University of California, priority 2007, dated 2013)", "key": {"isolated ureteric bud": {"system": "isolated ureteric bud", "assay": "Isolated ureteric bud culture in 3D extracellular matrix gel (soluble factor effects)", "format": "cell-based, rat", "settings": "for induction of isolated UB, WD, or UB and WD branching morphogenesis: factor alone or in combination with GDNF, without BSN-CM; for Shape: rat E13 isolated UB in 3D gel, GDNF 125 ng/ml, HRG 500 ng/ml, FGF1 250 ng/ml, FGF7 50 ng/ml, PTN purified from BSN-CM; for growth of the isolated UB, single soluble factor: factor by itself", "method": "In the case of culture of the isolated UB, WD, or UB and WD, the isolated kidneys were trypsinized for 15 min at 37° C. in L-15 media containing 2 μg/ml trypsin (Sigma). Trypsin digestion was arrested by the addition of 10% FCS and the kidneys were removed to fresh L-15 where the UBs, WDs, or UBs and WDs were isolated from surrounding MM by mechanical dissection. isolated UBs, WDs, or UBs and WDs were suspended within an extracellular matrix gel [1:1 mixture of growth factor reduced Matrigel™ (BD) and Type 1 collagen (BD)] applied to the top of a polyester Transwell filter (0.4 μm pore size; Corning-Costar). The Transwells were placed within individual wells of a 24-well tissue culture dish containing 400 μl of either whole BSN-CM, purified tractions of BSN-CM, or D-12 which were supplemented with human recombinant FGF1 (250 ng/ml; R&D Systems), rat recombinant GDNF (125 ng/ml; R&D Systems) and 10% FCS and cultured. Phase-contrast photomicrographs of the developing UB, WD, or UB and WD were taken using a RT-Slider Spot Digital Camera (Diagnostic Instruments Inc.) attached to a Nikon Eclipse TE300 Inverted Microscope.\nIsolated ureteric bud, Wolffian duct bud, or ureteric and Wolffian duct buds were obtained from whole embryonic kidneys as described herein. Briefly, the embryonic kidney was lightly digested with trypsin and the UB, WD, or UB and WD were separated from the MM using fine-tipped needles. The UBs, WDs, or UBs and WDs were suspended within a matrix containing growth factor reduced Matrigel™ and Type I collagen and buffered by HEPES, NaHCO3, and DMEM to a pH of approximately 7.2. This mixture containing the suspended UB, WD, or UB and WD was applied to the top of the Transwell filter and the purified factor is applied to the well. The factor is supplemented with GDNF (125 ng/ml) and 10% FCS, and the isolated UBs, WDs, or UBs and WDs are cultured at 37° C. and humidified 5% CO2 atmosphere and branching morphogenesis, was assayed.\nThe entire urogenital tract was isolated from timed pregnant Holtzman rats at embryonic day 13 (E13). Kidney rudiments were dissected and lightly digested in trypsin for 15 minutes, after which the ureteric buds were mechanically separated from the metanephric mesenchyme. For the growth factor optimization, the buds were suspended within a matrix containing growth factor-reduced Matrigel™ and DMEM/F12 (50:50 v/v) on a 0.4 μm pore sized Transwell filter and BSN-conditioned media supplemented with 10% FCS and 1% antibiotics was placed beneath the filter. GDNF (125 ng/ml), FGF1 (250 ng/ml), FGF7 (50 ng/ml), HRG (500 ng/ml), PTN (purified from BSN-CM) was added to the media in various combinations to achieve a “minimal” and “most robust” growth factor condition. For the matrix optimization, isolated buds were cultured in a BSN-CM supplemented with 10% FCS, GDNF (125 ng/ml), FGF1 (250 ng/ml), and 1% antibiotics. Isolate buds were suspended in matrices (natural and artificial) consisting of growth factor reduced Matrigel™ diluted with DMEM/F12 (15%, 25%, 50%, 75% and 100%), type I collagen (3.0 mg/ml), Puramatrix™, 1% alginate solution (crosslinked with 100 mM CaCl2), and type IV collagen (0.75 mg/mL). In some cases, type I collagen, laminin 1, alginate or type IV collagen were added to a 50% growth factor reduced Matrigel™ solution. All matrix solutions were supplemented with DMEM and buffered by HEPES and NaHCO3 to a pH of approximately 7.2. The isolated buds were then cultured at 37° C. in a humidified 5% CO2 atmosphere."}, "Wolffian duct": {"system": "Wolffian duct", "assay": "Wolffian duct budding in vitro", "format": "cell-based, rat", "settings": "whole mesonephros on Transwell filter, 10% serum and 10 ng/mL GDNF, two days", "text": "The entire urogenital tract was isolated from timed pregnant Holtzman rats at embryonic day 13 (E13). Kidney rudiments were dissected, and the Wolffian duct was transected and removed. In some cases, the mesonephric tubules and most of the intermediate mesoderm were mechanically separated from the WD leaving a thin layer of the intermediate mesoderm that remained adherent to the WD. In some cases, the intermediate mesoderm was carefully stripped away in its entirety so that the epithelial tube of the WD remained intact. The WD with mesonephros and the WD with intermediate mesoderm were placed on 0.4 μm pore size Transwell filters and cultured at the air-media interface. The isolated WD devoid of all intermediate mesoderm was suspended in a matrix containing growth factor reduced Matrigel'm and DMEM/F12 (50:50 v/v) on a 0.4 μm pore sized Transwell filter. All cultures were carried out at 37° C. in a fully humidified 5% CO2 atmosphere in the presence of DMEM/F12 (50:50) media supplemented with 10% fetal calf serum (FCS), GDNF (10 ng/mL for the WD plus mesonephros, 125 ng/ml WD plus mesoderm and isolated WD) and, if necessary, either FGF1 (250 ng/ml) or FGF7 (50 ng/ml)."}, "[1]": {"system": "UB, WD, or UB and WD derived cells", "assay": "UB cell three-dimensional culture (tubulogenic activity)", "format": "cell-based, mouse", "settings": "collagen/Matrigel gel, 1% FCS, 4 days", "method": "Confluent monolayers of UBs, WDs, or UBs and WDs were removed from tissue culture dishes by light trypsinization and the cells. 20,000 cells/ml were suspended in an extracellular matrix gel composed of 80% Type 1 collagen and 20% growth factor-reduced Matrigel™. 100 μl of the UB, WD, or UB and WD cell-containing gel was then aliquoted into individual wells of a 96-well tissue culture plate. After gelation, 100 μl of growth medium (DMEM/F12 with or without purified pleiotrophin) supplemented with 1% FCS was applied to each well and the cultures were incubated at 32° C. in 5% CO2 and 100% humidity. Following 4 days of culture, the percentage of cells/colonies with processes was counted as an indicator of the tubulogenic activity. Phase-contrast photomicrographs were taken as described herein."}, "whole embryonic kidney": {"system": "whole embryonic kidney", "assay": "Whole embryonic kidney organ culture", "format": "cell-based, rat", "text": "Timed pregnant female Sprague-Dawley rats at day 13 of gestation (day 0 coincided with appearance of the vaginal plug) were sacrificed and the uteri were removed. The embryos were dissected free of surrounding tissues and the kidneys were isolated. For the culture of the whole kidney rudiment, 2-3 kidneys were applied directly to the top of a polyester Transwell filter (0.4 μm pore size; Corning-Costar). The Transwells were then placed within individual wells of a 24-well tissue culture dish containing 400 μl DMEM/F12 supplemented with 10% FCS with or without purified pleiotrophin. Following 7 days of culture, the kidneys were fixed in 2% paraformaldehyde and doublestained with fluorescein-conjugated Dolichos biflorus, a lectin which binds specifically to UB, WD, or UB and WD-derived structures, and rhodamine conjugated peanut agglutinin, a lectin which binds to structures derived from the MM. Fluorescent staining was detected using a laser-scanning confocal microscope (Zeiss)."}}}
{"molecule": "Hepatocyte growth factor [HGF, reference compound]", "values": [{"measurement": "induction of isolated UB, WD, or UB and WD branching morphogenesis", "setting": "isolated ureteric bud", "value": "does not induce branching morphogenesis"}]}
{"molecule": "fibroblast growth factor-1 [FGF1]", "values": [{"measurement": "effect of added FGF1 on inductive capacity of BSN-CM", "setting": "isolated ureteric bud; 250 ng/ml FGF1", "value": "could potentiate the activity of the BSN-CM"}, {"measurement": "induction of isolated UB, WD, or UB and WD branching morphogenesis", "setting": "isolated ureteric bud", "value": "not sufficient to induce"}, {"measurement": "Shape", "setting": "isolated ureteric bud", "value": "tubular"}]}
{"molecule": "heregulin [HRG]", "values": [{"measurement": "growth of the isolated UB, single soluble factor", "setting": "isolated ureteric bud", "value": "did not support growth"}]}
{"molecule": "glial cell-derived neurotrophic factor (protein, UniProt P39905 78-211, looked up, growth factor obtained from R&D Systems) Glial cell line-derived …: SPDKQMAVLPRRERNRQAAAANPENSRGKGRRGQRGKNRGCVLTAIHLNVTDLGLGYETKEELIFRYCSGSCDAAETTYDKILKNLSRNRRLVSDKVGQACCRPIAFDDDLSFLDDNLVYHILRKHSAKRCGCI", "values": [{"measurement": "growth of the isolated UB, single soluble factor", "setting": "isolated ureteric bud", "value": "did not support growth"}, {"measurement": "Wolffian duct budding", "setting": "Wolffian duct", "value": "numerous budding events occurred at multiple foci along the WD"}]}
{"molecule": "fibroblast growth factor-7 (protein, UniProt P21781 32-194, looked up, growth factor obtained from R&D Systems) Fibroblast growth factor 7: CNDMTPEQMATNVNCSSPERHTRSYDYMEGGDIRVRRLFCRTQWYLRIDKRGKVKGTQEMKNNYNIMEIRTVAVGIVAIKGVESEFYLAMNKEGKLYAKKECNEDCNFKELILENHYNTYASAKWTHNGGEMFVALNQKGIPVRGKKTKKEQKTAHFLPMAIT", "values": [{"measurement": "Shape", "setting": "isolated ureteric bud", "value": "globular"}]}
{"molecule": "pleiotrophin (protein, UniProt P21246 33-168, looked up) Pleiotrophin: GKKEKPEKKVKKSDCGEWQWSVCVPTSGDCGLGTREGTRTGAECKQTMKTQRCKIPCNWKKQFGAECKYQFQAWGECDLNTALKTRTGSLKRALHNAECQKTVTISKPCGKLTKPKPQAESKKKKKEGKKQEKMLD", "values": [{"measurement": "morphology of the branching UB, lower concentrations", "setting": "isolated ureteric bud; 156 ng/ml-2.5 pg/ml purified pleiotrophin", "value": "dichotomous branching and elongation of the stalk"}, {"measurement": "concentrations useful for morphogenetic activity", "setting": "isolated ureteric bud; cultures in collagen IV or basement membrane Matrigel", "value": "200 to 600", "unit": "ng/mL"}, {"measurement": "growth of the isolated UB, single soluble factor", "setting": "isolated ureteric bud", "value": "did not support growth"}, {"measurement": "branching morphogenesis of the isolated UB, pleiotrophin purified from 3T3 conditioned medium", "setting": "isolated ureteric bud; pure pleiotrophin isolated from Swiss 3T3 conditioned medium", "value": "capable of inducing impressive branching morphogenesis"}, {"measurement": "induction of UB, WD, or UB and WD branching morphogenesis", "setting": "isolated ureteric bud; supplemented with GDNF, in the absence of FGF1", "value": "capable of inducing"}, {"measurement": "morphology of the branching UB, high concentration", "setting": "isolated ureteric bud; ≧5 μg/ml purified pleiotrophin", "value": "robust proliferation with less elongation"}, {"measurement": "formation of branching structures of UB cells in three dimensional culture", "setting": "[1]", "value": "capable of inducing the formation of branching structures"}, {"measurement": "growth of the UB in whole embryonic kidney organ culture", "setting": "whole embryonic kidney; exogenously added pleiotrophin, 7 days", "value": "disproportionately stimulated growth"}, {"measurement": "Nephron induction visualized with PNA lectin", "setting": "whole embryonic kidney; high concentrations of pleiotrophin", "value": "appeared to be normal"}]}
{"molecule": "recombinant human pleiotrophin: recombinant human pleiotrophin produced in the insect cell line (R&D systems) (protein, UniProt P21246 33-168, looked up) Pleiotrophin: GKKEKPEKKVKKSDCGEWQWSVCVPTSGDCGLGTREGTRTGAECKQTMKTQRCKIPCNWKKQFGAECKYQFQAWGECDLNTALKTRTGSLKRALHNAECQKTVTISKPCGKLTKPKPQAESKKKKKEGKKQEKMLD", "values": [{"measurement": "branching morphogenesis of the isolated UB, WD, or UB and WD", "setting": "isolated ureteric bud; E13 rat bud in extracellular matrix gel, with GDNF", "value": "unable to induce"}]}
